The conditions of data set [1]: taken for 1 year; cited from earlier work.
The conditions of data set [2]: in vivo; cited from earlier work.
Data set [3] deals with T1, human GLP-1 receptor (Homo sapiens, UniProt P43220).
T1 construct: host or cells: CHO DG44
Briefly: cAMP response in CHO cell line expressing human GLP-1 receptor (CHO/GLP-1R). It is filed as cell-based. The settings on record: Table 3, Fc conjugates, GLP-1, glucagon, 37° C. for 1 hour. How it is done:
The PCR product was cloned into the known animal cell expression vector x0GC/dhfr to prepare a recombinant vector x0GC/GLP1R.
CHO DG44 cell line cultured in DMEM/F12 (10% FBS) medium was transfected with the recombinant vector x0GC/GLP1R using LIPOFECTAMINE® (INVITROGEN®, USA), and cultured in a selection medium containing 1 mg/mL G418 and 10 nM methotraxate.
(§1) The cultured cells were washed with KRB buffer and suspended in 40 ml of KRB buffer containing 1 mM IBMX, and left at room temperature for 5 minutes. […] Then, 20 mL of cell lysis buffer was added for cell lysis, and the cell lysates were applied to a cAMP assay kit (Molecular Device, USA) to measure cAMP concentrations. EC50 values were calculated therefrom, and compared to each other.
(§2) Each of the cultured transformants was washed with KRB buffer and suspended in 40 ml of KRB buffer containing 1 mM IBMX, and left at room temperature for 5 minutes. […] Then, 20 ml of cell lysis buffer was added for cell lysis, and the cell lysates were applied to a cAMP assay kit (Molecular Device, USA) to measure cAMP concentrations using a Victor (PERKIN ELMER®, USA). EC50 values were calculated therefrom, and compared to each other (Table 3).

For data set [4], the target named is T2, human glucagon receptor (Homo sapiens, UniProt P47871).
T2 construct: host or cells: CHO DG44
T2 sequence (P47871 26-477): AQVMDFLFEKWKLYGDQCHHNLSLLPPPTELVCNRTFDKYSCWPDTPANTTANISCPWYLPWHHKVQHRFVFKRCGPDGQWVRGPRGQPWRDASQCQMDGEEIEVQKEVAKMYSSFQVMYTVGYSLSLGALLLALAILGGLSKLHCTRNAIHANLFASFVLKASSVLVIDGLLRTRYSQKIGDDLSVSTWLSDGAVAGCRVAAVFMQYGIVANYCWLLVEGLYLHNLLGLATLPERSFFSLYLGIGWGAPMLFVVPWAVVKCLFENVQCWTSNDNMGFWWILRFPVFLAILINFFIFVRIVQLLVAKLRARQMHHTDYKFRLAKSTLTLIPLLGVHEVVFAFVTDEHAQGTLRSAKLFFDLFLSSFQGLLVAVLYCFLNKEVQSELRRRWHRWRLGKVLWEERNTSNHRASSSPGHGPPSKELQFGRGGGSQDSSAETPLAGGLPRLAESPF
The experiment in a line: cAMP response in CHO cell line expressing human glucagon receptor (CHO/GCGR). It counts as cell-based. Conditions: Table 3, Fc conjugates, GLP-1, glucagon, 37° C. for 1 hour. How it is done:
The PCR product was cloned into the known animal cell expression vector x0GC/dhfr to prepare a recombinant vector x0GC/GCGR.
CHO DG44 cell line cultured in DMEM/F12 (10% FBS) medium was transfected with the recombinant vector x0GC/GCGR using LIPOFECTAMINE®, and cultured in a selection medium containing 1 mg/mL G418 and 10 nM methotraxate.
as §1, §2

T1 sequence (P43220 24-463): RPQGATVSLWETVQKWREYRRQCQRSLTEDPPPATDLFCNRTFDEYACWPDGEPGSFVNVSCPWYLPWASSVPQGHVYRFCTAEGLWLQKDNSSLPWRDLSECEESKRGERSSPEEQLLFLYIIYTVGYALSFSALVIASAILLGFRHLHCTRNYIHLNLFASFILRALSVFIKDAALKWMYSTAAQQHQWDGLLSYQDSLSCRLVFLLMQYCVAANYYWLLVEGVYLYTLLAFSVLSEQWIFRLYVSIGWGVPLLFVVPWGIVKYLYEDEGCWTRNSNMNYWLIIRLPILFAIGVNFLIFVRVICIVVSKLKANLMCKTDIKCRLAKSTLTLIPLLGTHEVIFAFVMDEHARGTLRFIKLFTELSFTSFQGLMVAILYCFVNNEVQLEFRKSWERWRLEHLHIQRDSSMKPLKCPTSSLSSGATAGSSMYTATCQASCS

For the compound `CCCCCCCCCCC[C@@H](C[C@@H]1OC(=O)[C@H]1CCCCCC)OC(=O)[C@H](CC(C)C)NC=O` [Orlistat], the weight loss in data set [1] is 4 kg.
As to `Cc1c(C(=O)NN2CCCCC2)nn(-c2ccc(Cl)cc2Cl)c1-c1ccc(Cl)cc1` [Rimonabant], the side-effect entry in data set [2] is given as “side-effect of central nerve disorder”.
As to `CC(C)CC(N(C)C)C1(c2ccc(Cl)cc2)CCC1` (stereo not drawn) [Sibutramine], the side-effect entry in data set [2] is given as “cardiovascular side-effects”.
Regarding “SEQ ID NO. 23 - Fc conjugates: conjugate of oxyntomodulin derivative (SEQ ID NO. 23), cysteine 24, MAL-10K-ALD PEG and immunoglobulin Fc (HXQGTFTSDYSKYLDEKRAKEFVCWLMNT; not fully specified; conjugate chemistry not built; chains of the parent or of the whole protein)”, the concentration giving a half-maximal response (EC50) in data set [3] stood at 5.4 nM; in data set [4], 15.8 nM.
For the compound “SEQ ID NO. 33 - Fc conjugates: conjugate of oxyntomodulin derivative (SEQ ID NO. 33), cysteine 30, MAL-10K-ALD PEG and immunoglobulin Fc (HXQGTFTSDYAKYLDEKRAKEFVQWLMNTC; conjugate chemistry not built; chains of the parent or of the whole protein)”, the values for the half-maximal effective concentration (EC50) in data set [3] and in data set [4] were 11.7 nM and 85.9 nM, respectively.
On the same counts, the results for “SEQ ID NO. 34 - Fc conjugates: conjugate of oxyntomodulin derivative (SEQ ID NO. 34), cysteine 30, MAL-10K-ALD PEG and immunoglobulin Fc (YXQGTFTSDYSKYLDEKRAKEFVQWLMNTC; conjugate chemistry not built; chains of the parent or of the whole protein)” are 168 nM and 8 nM.

By EC50 is commonly meant the concentration giving half of the maximal effect. A lower EC50 goes with higher potency in that assay.

The values are drawn from patent US10363320B2, “Conjugate comprising oxyntomodulin and an immunoglobulin fragment, and use thereof” (HANMI SCIENCE CO., LTD, priority 2011, dated 2019).
